The values below come from the DeepSol protein solubility set.

The nature of the data set: soluble on expression in E. coli; label from the status in PepcDB or PDB records.
As for “MSLSITRRVRLSVDTCCYEAEIAGILRPQLLKGRMSVREEFDAWAAEGKDRGMEDRHWHTAKHVLARMPVEPGDTVLDLGTGSGYALRALRDTNDAGPCYGLDGSPEMLRNAREYTDDDGIGFLRGDFDALPFATDSIDHVFSMEAFYYASDPPHTLEEIARVLRPGGTANIAVNYYEENVHSHEWQEFIDIEMTRWSADEYREAFREAGLAVAAQDTIPDREVEIPPADTFPTDEFETREAMVERYRELGTLLTVGVATEGHHHHHH”, the “soluble on expression in E. coli” value is given as “soluble”.
Take “MSLSIYQASIPTFLRTLGNLSAILKKAAAHAEAKNIDPRIFIDARLAPDMFPLARQVQIASDAAKGAGARLAGLEVPSYADTETTFDELQARIARTVEFLEGIREEQLDGAEERNVTLKVRGQEISFNGRDFLFGFALPNFFFHVTTAYAILRHNGVELGKMDFLGGA”: the “soluble on expression in E. coli” value is given as “not soluble”.
The result for “MSLSKFVLGGLWPETGSLAYLAPPELAAEKLAVKDINDAGGVLGNKITTVDADTSDADHADQNTSAAQSVLSKNPSFIIGPASSSVVKNTYKSITSQNIPMLSMGATSASFSGLSDYFFRTVAPDTVQGAVMGNLIAQDGVQKLAIAVFNDEYGTGLRDTIVKTASAAGVDIIYGEKDTFDPTETNFSSIATAIKASNPDATLVIAFDQTKPLLKALASAGVNTKKLYFVDGNTSDYSSELDAGLLEGSKGTIPGINPSDDFVKRLESTGVDLKNTTTYGAETYDGIILAALAAQKGGSADGKTIQANMAAVSGSTKGEKCDSYKACVALLKDGKEIQYKGQTSIGAFNDAHDPSSASIGVYKYDADNKPVFDHSQEGSVPKAEGHHHHHH” reads “soluble”; that for “MSLSKSTFEIKNGHFYRNGKITPVLSGEMHYARIPHQYWRHRLQMMKGMGLNTVATYVFWNLHEPEPGKWDFTGDKNLAEFIKTAGEEGMMVILRPGPYVCAEWEFGGYPWWLQNVKGMEIRRDNPEFLKYTKAYIDRLYKEVGSLQCTKGGPIVMVQCENEFGSYVAQRKDIPLEEHRAYNAKIKQQLADAGFNVPLFTSDGSWLFEGGATPGALPTANGESDIENLKKVVDQYHDGKGPYMVAEFYPGWLSHWAEPFPQIGASGIARQTEKYLQNDVSFNFYMVHGGTNFGFTSGANYDKKRDIQPDMTSYDYDAPISEAGWVTPKYDSIRNVIKKYVKYTIPEAPAPNPVIEIPSIQLNKVADVLAFAEKQKPVSSDTPLTFEQLNQGYGYVLYTRHFNQPISGTLEIPGLRDYAVVYVDGEQVGVLNRNTKTYSMEIEVPFNATLQILVENMGRINYGSEIVHNTKGIISPVQIAGKEIVGGWDMYQLPMDEMPDLTKLKADTHKNVPSEVAKLKGCPVLYEGTFTLDKVGDTFMDMESWGKGIVFVNGVNIGRYWKVGPQQTLYVPGVWLKKGENKIVIFEQLNETPQTEVKTVKTPVLMKLKGEGHHHHHH”, “soluble”; that for “MSLSLEYKGTFGSINAGYADWNSGFVNTHRGEVWKVTADFGVNFKEAEFYSFYESNVLNHAVAGRNHTVSAMTHVRLFDSDMTFFGKIYGQWDNSWGDDLDMFYGFGYLGWNGEWGFFKPYIGLHNQSGDYVSAKYGQTNGWNGYVVGWTAVLPFTLFDEKFVLSNWNEIELDRNDAYTEQQFGRNGLNGGLTIAWKFYPRWKASVTWRYFDNKLGYDGFGDQMIYMLGYDFEGHHHHHH”, “not soluble”.
On to “MSLSLKLPKADRSIETYRLAASRTFPARLEGPLNRIAFSAVHTVADPFADNDPWLSVAVDWDKTIAFREHVWDLGLGVAEAMDTAQRGMGLDWPTSLELITRSVAAAKRRNALVFSGAGTDHLAVEDARTVDDVIRAYEEQISAVEKVGGRIILMASRALAKLGRNADDYAKVYDRVLSQVREPVIIHWLGDMFDPALTGYWGTKDLDKAMDVAVAVINANAAKVDGVKVSLLDKQREIDMRRRLDKRIRMYTGDDFNYAELIAGDSQGFSHALLGIFDAIAPAASYALSRLAAGDEAGFHDVLGPTVPLSRHIFKAPTRFYKTGVVFMAYLNGHQDHFTMVGGQESARSMLHLAELFRLADQAGLLANPELATRRMTTVLASHGIESEGHHHHHH”, for which the “soluble on expression in E. coli” value was “soluble”.
For the sequence “MSLSLLEVCADLCGQQTLSLFQSSPSVQQVSQTRDLQDIIGQQQGKRALEIAAAGNHNLLFLGPPGTGKTMLASRLCDLLPEMSDEEAMETASIASLTQQEINQHNWKLRPFRAPHHSSSMAALVGGGTIPRPGEISLAHNGLLFLDEMPEFERKVLDSLREPLESGEIVISRAQGKTRFPARFQLVGALNPSPTGYYEGSQARANPQSILRYLSRLSGPLLDRFDMSIEIPALPKGTLANGGDRGESTAAVRQRVWVARERMLARSGKVNALLQSREIEQYCPLLKADAEFLESALHRLGLSIRAYHRIIKVARTIADLQGEAQIARPHLAEALGYRAMDRLLKQLSAQNEGHHHHHH”, the “soluble on expression in E. coli” value is given as “not soluble”.
On to “MSLSLMLTVETRQAVNPDYAKTLDTEGLRRHFLANDMFRSGEIRLIYTHYDRFVMGGAVPNGAPLTLDKVEETKTPSFLDRREMGIVNIGETGTVSAGDETYTLNRGDVLYLGAGSRAVTFDGAGRFYITSCPAHRSLPAKLVSLADSKEVKLGATETSNKRTINQFIHPLVMESCQLVLGYTMLEDGSVWNTIPSHIHDRRMEAYLYFGMDEKSRVLHLMGEPQETRHLFISNEEGAISPPWSIHSGAGIGSYTFIWAMAGDNVDYTDMDFIQPGDLKEGHHHHHH”, for which the “soluble on expression in E. coli” value is “soluble”.
Consider “MSLSLVIAAGTILGACGNSEKSSGSGEGKNKFSVAMVTDVGGVDDKSFNQSAWEGIQAFGKENGLKKGKNGYDYLQSKSDADYTTNLNKLARENFDLIYGVGYLMEDSISEIADQRKNTNFAIIDAVVDKDNVASITFKEQEGSFLVGVAAALSSKSGKIGFVGGMESELIKKFEVGFRAGVQAVNPKAVVEVKYAGGFDKADVGKATAESMYKSGVDVIYHSAGATGTGVFTEAKNLKKEDPKRDVWVIGVDKDQYAEGQVEGTDDNVTLTSMVKKVDTVVEDVTKKASDGKFPGGETLTYGLDQDGVGISPSKQNLSDDVIKAVDKWKKKIIDGLEIPATEKELKTFKAEEGGSHHHHHH”, for which the “soluble on expression in E. coli” value was “soluble”.
The value for “MSLSMSKRLLLFDFDETYFKHNTNEEDLSHLREMEKLLEKLTNNNEVMTAVLTGSTFQSVMDKMDQVNMTFKPLHIFSDLSSKMFTWNNGEYIESETYKKKVFSEPFLFEDIEDILRHISAQYNVEFIPQRAFEGNETHYNFYFHSTGNHSNDRRILEALVRYANDQNYTARFSRSNPLAGDPENAYDIDFTPSNAGKLYATQFLMKKYNIPVKSILGFGDSGNDEAYLSYLEHAYLMSNSRDEALKQKFRLTKYPYYQGITLHVKEFVEGKYDYEGHHHHHH” was “soluble”.
The value for “MSLSNAVRITALHTRLARIPLPRPLKTSIHEIADVCCLLVSLETDAGVTGEGYGFCFNADRLGAIAQFTQSLAPLVVGRDPHDVEALWTDFLRGCNFYGQSGVSILAYNPIDIACWDIVGKLAGRPLYKLFGAHRERVPVYASAGLWLSSSRDELRDEARQFLAQGFKAMKMRLGSPDWKEDIARVEVVRDAIGEQVTLMADANQGLDLTRALRLGRELARFDLAWFEEPVPTWDDDSAAEIVRRLPMPIASGETEYTRYGIRRMARERAAGVFMPDLQRMGGYTEMLKAVRYLAAHDLPVAPHIFTEHSLHIVAAAGNATWAEHMPWFEPLFHERMEIGADGCIAAPDRPGTGFTFDWQRIDPYLISPRTAGGSEGHHHHHH” was “soluble”; that for “MSLSNERSSEKTLQNLKTQLLEDSSFLSKLREKITPHIDDHDIQKIIRDYLLTNPEIIIEMQLILQDKLEKQSAQNTQKQASIINSLKKQIFQSPYDAVLGNPNGKRVLVDFFDYNCGYCKISYPYIENLIKEYPDLRVIIKDLPILGSDSMAAHIVAYAFRKQFPEKYPQFYKELLTHQSRANEIKAIKIAVSLGADEKKLRNAIKDSSLQNAFKKNIQIASRLNITGTPSYIIGDKLLIGAVSEEILKEAIENMQEGHHHHHH” was “soluble”.
Regarding “MSLSNKDIRVVVGMSGGVDSSVTAHVLKEQGYDVIGIFMKNWDDTDENGVCTATEDYNDVIEVCNQIGIPYYAVNFEKEYWDKVFTYFLDEYKKGRTPNPDVMCNKEIKFKAFLDHAMNLGADYVATGHYARIHRHEDGHVEMLRGVDNNKDQTYFLNQLSQQQLSKVMFPIGDIEKSEVRRIAEEQGLVTAKKKDSTGICFIGEKNFKTFLSQYLPAQPGDMITLDGKKMGKHSGLMYYTIGQRHGLGIGGDGDPWFVVGKNLKDNVLYVEQGFHHDALYSDYLIASDYSFVNPEDNDLDQGFECTAKFRYRQKDTKVFVKRENDHALRVTFAEPVRAITPGQAVVFYQGDVCLGGATIDDVFKNEGQLNYVVEGHHHHHH”, the “soluble on expression in E. coli” value is “soluble”.
The result for “MSLSNLTIDVQTVTQKGKKPYIEYQINRPSFHNFSDSKFQNKLNFYYKKSTDKFKTRLEKDAKKYYKETEGSSTPFHPYVANVDYKVSLNKPPLLSLYLNYYQYTGGAHGMYTWKANTFDLKEKKLLHLDDLFQQEDKYKEVIRAEIVRKIKQNEGIYFPDATEKVMSTKKFHFFLEPNNLVIYFPLYEIAPYSSGIPQFRIPYTLLREYLKPSYQNILIDNKEGHHHHHH” reads “soluble”.
Regarding “MSLSNPLNDLSKKYLTKGLNLASWAEANKITSANPKDWKYNEAIIKLQAEQGLLGIRFPIDLDLYVVDRLNVLNGTKKKIEIEPMLYTLMDSMNIWTKRYGLSLTIDYHAYDGSYNRASSKDPKFREAVSSLWRVVAQHFVKEKREDLFFELTNEPCLSLPEGEYIDQTDWTLLAQMMIDSIRRVDKTRPIIFGDTKWYSLDELIKNKPLKDPYVIYCFHMYDPFLFTHQGASWANMGTMKNIPFPYSPERWSTEFRDFGIVDGTPAWVKDLAKRYYQEGNKQFIKNRLAKVKNWAYEYNVPLICNEWGALPNTAKIEDLNAYFKTMGEIFEEMDISWQVWFGIMDSDYKLLPGMAEALHLKEGHHHHHH”, the “soluble on expression in E. coli” value was “soluble”.
Regarding “MSLSNYSTGELAKLCNVTTRTIQYYDRKGILKPQGFTEGKRRVYTEQQRQTLELILLLKDLGCALSDIDMLLKGEGTLKTLNTLLTMKQQEINQQVKQQQAVLNKIKNVQYYVNEASTSPITHLKDIEHVMSKSAEGHHHHHH”, the “soluble on expression in E. coli” value was “soluble”.
The value for “MSLSPPLTLNPEQAVAVASIFEHIHHYQCFLLQGVTGSGKTEVYLHVIAKILEQGKQVLVLVPEIGLTPQLLSRFTARFNHPITVLHSNLNESERQIAWQLAKENKVKMVIGTRSAVFTPLPNLGLIIIDEEHDSSLKQMEGVRYSARDTALMRAHLANIPIILGTATPSLETIHNCKQKKYNLLRLTHKAASTTPLHYQLIDLRSQMVQHGLALPTLKIIENHLLQQNQVLVFINRRGFAPVLLCHQCGWMVDCKACDSHLTLHKQAGQMICHHCGLTQRIPLFCNNCQSKELIPVGSGTQRIYEFLSHQFPDTNVLRIDRDEVRKKNSLNSHLDKINKGEAQLIIGTQMLAKGHHFPRLSLVVVVDADAGFYNQDFRAIEHLGQLLTQVSGRAGRAEHPGQVLIQTYLPDHPLLNLLIQHGYDEFANALLISRQEAEMPPFQFLAVIRAQGRTVSKVDQFLKATKDQIQAHPLTVLGPAPAPLPRKANQHRMQLLIKSPSRKVLKSSLTQLREWLTMNKLSNGIRWNVDVDPMDLSEGHHHHHH” was “not soluble”.
